Tests used:
[1] = target: T1, HA-tagged K270Stop striatin (human, UniProt O43815 1-269); experiment: co-IP; anti-HA immunoprecipitates (12CA5 with protein A-Sepharose, or F7 anti-HA-agarose when probing for Mst3 or Mst4; 1.5 h, 4°C) of lysates (1% Nonidet P-40, 0.135 M NaCl, 10% glycerol, 20 mM Tris pH 8.0) of HEK293 cells transfected with HA-striatins; endogenous partners by immunoblot, partner/HA-striatin ratio by chemilumimager against wild type; 50 mM NaF and 100 nM okadaic acid in the lysis buffer in the …; conditions: partners not purified
T1 construct: striatin, human, C-terminal truncation by a stop codon at K270; source: HEK293, transfected, in lysate; not shown: HA, N-terminal, kept
T1 sequence (looked up): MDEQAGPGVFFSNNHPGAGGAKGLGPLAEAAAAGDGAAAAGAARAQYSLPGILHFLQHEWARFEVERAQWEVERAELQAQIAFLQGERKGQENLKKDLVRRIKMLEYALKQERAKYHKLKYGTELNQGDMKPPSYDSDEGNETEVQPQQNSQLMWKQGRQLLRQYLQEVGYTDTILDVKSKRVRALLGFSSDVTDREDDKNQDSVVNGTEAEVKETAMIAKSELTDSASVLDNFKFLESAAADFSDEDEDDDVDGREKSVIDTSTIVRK

[2] = target: T2, HA-tagged F457Stop striatin (human, UniProt O43815 1-456); experiment: as above; conditions: partners not purified
T2 construct: striatin, human, C-terminal truncation by a stop codon at F457 (loss of seven of eight WD-repeats); residues 1-456 by the mutant's name; source: HEK293, transfected, in lysate; not shown: HA, N-terminal, kept
T2 sequence (looked up): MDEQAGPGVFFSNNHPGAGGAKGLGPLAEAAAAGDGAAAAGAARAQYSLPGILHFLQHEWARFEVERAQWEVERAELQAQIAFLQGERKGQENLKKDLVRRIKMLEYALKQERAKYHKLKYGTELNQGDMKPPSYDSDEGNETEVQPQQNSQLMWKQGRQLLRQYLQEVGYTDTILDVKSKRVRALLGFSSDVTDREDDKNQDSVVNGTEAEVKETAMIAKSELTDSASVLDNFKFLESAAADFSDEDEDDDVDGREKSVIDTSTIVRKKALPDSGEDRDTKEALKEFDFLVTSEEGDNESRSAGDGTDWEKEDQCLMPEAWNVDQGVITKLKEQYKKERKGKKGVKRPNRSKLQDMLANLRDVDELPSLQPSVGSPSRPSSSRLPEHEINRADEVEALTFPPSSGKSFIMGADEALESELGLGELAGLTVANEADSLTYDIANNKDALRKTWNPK

percent reduction in binding against wild-type striatin [1]: 45% | percent reduction in binding against wild-type striatin [2]: 29%
B1: Mob3/phocein (natural protein, human (endogenous in HEK293), UniProt Q9Y3A3 1-225, looked up)
chain: MVMAEGTAVLRRNRPGTKAQDFYNWPDESFDEMDSTLAVQQYIQQNIRADCSNIDKILEPPEGQDEGVWKYEHLRQFCLELNGLAVKLQSECHPDTCTQMTATEQWIFLCAAHKTPKECPAIDYTRHTLDGAACLLNSNKYFPSRVSIKESSVAKLGSVCRRIYRIFSHAYFHHRQIFDEYENETFLCHRFTKFVMKYNLMSKDNLIVPILEEEVQNSVSGESEA
notes: source: endogenous, HEK293 lysate

— PMC3217859, “Protein phosphatase 2a (PP2A) binds within the oligomerization domain of striatin and regulates the phosphorylation and activation of the mammalian Ste20-Like kinase Mst3” (BMC Biochemistry, 2011)
